The record followed here is US20260022165A1 (US Dept. of Health and Human Services, published 2026).

In one assay the target is T1, hFc-hC3d fusion protein (human, UniProt P01024 1002-1303, limits assumed).
T1 construct: domain: C3d; also called immobilized hC3d; not shown: human IgG Fc (hFc), captured by an anti-human IgG CH2 / Fcγ mAb
Put plainly: SPR (Biacore X100), Fab over captured hFc-hC3d. As to the method:
(§1) Kinetic and thermodynamic parameters characterizing the binding of purified Fabs to hC3d or mC3d was performed by surface plasmon resonance (SPR) in a Biacore X100 instrument (GE Healthcare). Using mouse anti-human IgG CH2 mAb immobilized on a CM5 sensor chip, hFc-hC3d or hFc-mC3d fusion proteins were captured at a density <400 RU. Each sensor chip included an empty flow cell for instantaneous background subtraction. All binding assays used 1×HBS-EP+ running buffer (10 mM HEPES, 150 mM NaCl, 3 mM EDTA (pH 7.4), and 0.05% (v/v) Surfactant P20) at a flow rate of 30 μL/min. […] Calculation of association (kₒₙ) and dissociation (koff) rate constants were based on a 1:1 Langmuir binding model. The equilibrium dissociation constant (KD) was obtained by the formula KD=koff/kₒₙ.

The target of the next assay is T2, hFc-mC3d fusion protein (human; mouse, UniProt P01027 1002-1303, limits assumed).
T2 construct: domain: C3d; not shown: human IgG Fc (hFc), captured by an anti-human IgG CH2 mAb
T2 sequence (P01027 1002-1303 limits assumed): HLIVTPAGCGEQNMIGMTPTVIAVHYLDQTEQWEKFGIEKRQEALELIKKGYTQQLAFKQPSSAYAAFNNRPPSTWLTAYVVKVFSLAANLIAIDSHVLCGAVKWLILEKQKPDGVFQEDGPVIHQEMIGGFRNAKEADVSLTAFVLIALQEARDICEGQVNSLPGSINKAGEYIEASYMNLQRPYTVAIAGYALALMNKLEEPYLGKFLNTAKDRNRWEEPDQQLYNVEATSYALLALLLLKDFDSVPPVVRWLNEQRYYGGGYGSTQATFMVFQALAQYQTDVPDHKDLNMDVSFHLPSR
As to the kind of experiment: SPR (Biacore X100), Fab over captured hFc-mC3d. As to the method: as §1
Background: In SPR one partner is held on a chip, and binding of the other changes the refractive index at the surface.

For assay [1], the target named is T3, human complement protein C3d (human, UniProt P01024 1002-1303).
T3 construct: domain: C3d; the 30 min deposits on zymosan are a mixture of C3b/iC3b/C3d that the text calls C3d; also called hC3d; human C3d
As to the kind of experiment: flow cytometry; His-tagged Fab on zymosan particles opsonized with human serum (C3b/iC3b/C3d); detection AF488 mouse anti-His mAb. In general terms: In flow cytometry, cells or beads pass a laser one at a time.
Description: (§2) C3-opsonized zymosan particles (1e6) were incubated with 100 μL of 1 ug/mL His-tagged Fabs in a 96-well V-bottom plate at 37° C. for 1 h. After three washes with PBST (0.05% v/v Tween 20 in PBS), 100 μL of mouse anti-His tag mAb conjugated to horse radish peroxidase (HRP) (R&D Systems, Minneapolis, MN) at 1:1000 dilution in 1% (w/v) BSA/DPBS was added to detect bound Fabs using 2,2′-azino-bis (3-ethylbenzthiazoline)-6-sulfonic acid (Roche/Milipore Sigma, St. Louis, MO) as substrate. The absorbance was measured at 405 nm using a SpectraMax M5 microplate reader and SoftMax Pro software (Molecular Devices, LLC, San Jose, CA). To test for the potential of C3 in NHS to block binding of the mAbs to C3-fragment opsonized zymosan, serial dilutions of NHS were premixed with the opsonized zymosan particles prior to addition of his-tagged Fabs and following the procedure described above.
The binding of rabbit antibodies (Fabs) was detected by flow cytometry following the same procedure described above except using a mouse anti-His tag mAb conjugated to AF488 (Qiagen, Valencia, CA).

In assay [2] the target is T4, full length human C3 present in plasma (human, UniProt P01024 23-1663).
T4 construct: mature; Not purified: it stood in the assay as dilutions of normal human serum; also called full-length, soluble C3; C3 in NHS
Put plainly: ELISA, competition; His-tagged Fab (1 ug/mL) on zymosan opsonized with human C3 fragments in the presence of normal human serum (printed PNHCS) at 1/10, 1/50, 1/250 as source of full-length C3; normalized to media without serum. (An ELISA detects its analyte on a solid surface through an enzyme-linked reagent.)
Description: Zymosan particles opsonized with human C3 fragments were suspended in media with indicated dilutions of NHS (1/10, 1/50 and 1/250) prior to addition of His-tagged anti-C3d Fab antibodies at 1 μg/mL. Mouse anti-His mAb conjugated with HRP was used to determine the binding signal of each Fab by ELISA. Data is normalized to media control containing no NHS.
as §2

B1: Ab2 Fab (His-tagged rabbit/human chimeric anti-C3d Fab) (Fab, V domains shown)
VH: QSVEESGGRLVTPGTPLTLTCTVSGFSLSSYAMTWVRQAPGKGLEWIGVIGTSGMRYYANWAKGRFTISKTSTTVDLKITSPTTEDTATYFCARANFYVGNDESTDAFDPWGPGTLVTVSS
VL: ALVMTQTPPSLSASVGETVRIRCLASEDIYNTISWYQQKPGKPPTLLIYGASNLKSGVPPRFSGSGSGTDYTLTIGGVQSEDAATYYCLGGYSYSSTGLTFGAGTKVEIK
notes: Fab with rabbit Vκ/human Cκ/rabbit VH, His-tagged; also called Ab2 (κ)
The term Kd denotes the constant that tells how readily two partners part at equilibrium. As a reminder, the koff is a measure of how fast the partners let go of each other. Low readings indicate slow dissociation, high ones fast dissociation. As a reminder, the kon is the second-order rate constant of association. A low value points to slower complex formation. On to B1, for which, in the assay with hFc-hC3d fusion protein, binding was characterised by a dissociation constant (Kd) of 3.35 nM, the koff worked out at 0.00054 s⁻¹ and the on-rate constant (kon) is 162000 M⁻¹ s⁻¹. Further, in the assay with hFc-mC3d fusion protein, the Kd is 9.04 nM, the koff came to 0.00174 s⁻¹ and the kon turned out to be 193000 M⁻¹ s⁻¹.

B2: Ab1 Fab (His-tagged rabbit/human chimeric anti-C3d Fab) (Fab, V domains shown)
VH: QSVEESRGRLVTPGTPLTLTCTVSGIDLSSSAITWVRQAPGKGLEWIGMISTDGATYYANWAKGRFTFSKTSTTADLKITSPTTEDTATYFCARGLTNFSIWGPGTLVTVSS
VL: QPVLTQSPSASAALGASAKLTCTLSSAHKTYTIAWYQQQPGESPRYLMLLKSDGSYTRGPGVPDRFSGSSSGADRYLIIPSVQADDEAGYYCGADYNGGYVFGGGTQLTVTG
notes: Fab from the phage display vector pC3C with rabbit Vλ/human Cλ/rabbit VH, His-tagged; also called Ab1 (λ)
In the case of B2, the figures for the binding result in assay [1] and in assay [2] were “binds” and “no binding (tested: serum dilution 1/10)”, respectively.

B3: Ab3 Fab (His-tagged rabbit/human chimeric anti-C3d Fab) (Fab, V domains shown)
VH: QKQLVESGGRLVTPGGSLTLTCTISGIDLNTYGMTWVRQAPGKGLEYIGIIVSSGNTYYANWAQGRFTISKTSTTVDLKMTSLTASDTATYFCARGLGRAYSSGYGMDGWGPGTLVTVSS
VL: DPVLTQTPSSTSAAVGGTVTIKCQASQNIYTSLAWYQQKPGQPPKLLIYGASNLASGVPSRFKGSRSGTEYTLTISGVEREDAATYYCLGSYTQIDTTFGGGTKLEIK
notes: Fab with rabbit Vκ/human Cκ/rabbit VH, His-tagged; also called Ab3 (κ)
In the assay with hFc-hC3d fusion protein, B3 had a dissociation constant Kd of 13.3 nM, a koff of 0.00126 s⁻¹ and a kon of 94600 M⁻¹ s⁻¹. In the assay with hFc-mC3d fusion protein, the Kd is 97.6 nM, the off-rate (koff) is 0.0227 s⁻¹ and the kon amounted to 232000 M⁻¹ s⁻¹.

B4: Ab5 Fab (His-tagged rabbit/human chimeric anti-C3d Fab) (Fab, V domains shown)
VH: QSLEESGGRLVTPGTPLTLTCTVSGFSLSTYTLGWVRQAPGKGLEYIGWIDSSGSAYYASWAKGRFTISKASSTTVDLKMAGLTTEDTATYFCASGNTGGDPLYYGMDPWGPGTLVTVSS
VL: DPVLTQTPSSTSAAVGGTVTIKCQASQNIGRWLAWYQQKPGQPPKLLIYRASDLASGVPSRFKGSGSGTQFTLTISGVQREDAATYYCLGSYSSSDSAFGGGTEVVVK
notes: Fab with rabbit Vκ/human Cκ/rabbit VH, His-tagged; also called Ab5 (κ)
In the assay with hFc-hC3d fusion protein, B4 returned a Kd of 0.99 nM, an off-rate constant (koff) of 0.00014 s⁻¹ and an association rate constant (kon) of 141000 M⁻¹ s⁻¹. Further, in the assay with hFc-mC3d fusion protein, binding was characterised by a dissociation constant (Kd) of 22.9 nM, the koff was determined as 0.00568 s⁻¹ and the kon was found to be 248000 M⁻¹ s⁻¹.

B5: Ab4 Fab (His-tagged rabbit/human chimeric anti-C3d Fab) (Fab, V domains shown)
VH: QSLEESGGRLVTPGTPLTLTCTVSGFSLSRYTMAWVRQAPGKGLEYIGWIDSSGSTYYASWAKGRFTISKTSSTTVDLKMTSLTTEDTATYFCASGNDGGDPLYYGMDPWGPGTLVTVSS
VL: DGVMTQTPSSTSAAVGGTVTIKCQASQSIRSWLSWYQQKPGQPPKLLIYEASKLASGVPSRFKGSRSGTEYTLAISGVQREDAATYYCLGSIASDDTAFGAGTNVEIK
notes: Fab with rabbit Vκ/human Cκ/rabbit VH, His-tagged; also called Ab4 (κ)
For B5, in the assay with hFc-hC3d fusion protein, the dissociation constant Kd was 3.1 nM, the off-rate constant (koff) came to 0.00028 s⁻¹ and the kon is 90900 M⁻¹ s⁻¹. In the assay with hFc-mC3d fusion protein, the Kd turned out to be 132 nM, the off-rate constant (koff) was 0.00801 s⁻¹ and the kon worked out at 60600 M⁻¹ s⁻¹.
